Measured values: patent US20140271457A1 (AbbVie / Abbott, published 2014)
Positions count from the first letter of the chain named.

B1: DVD2769 (bispecific antibody, IgG1)
VH: EVQLVESGGGLVQPGGSLRLSCAASGFSLTNNNVNWVRQAPGKGLEWVGGVWAGGATDYNSALKSRFTISRDNSKNTAYLQMNSLRAEDTAVYYCARDGGYSSSTLYAMDAWGQGTLVTVSSASTKGPEVQLVESGGGLVQPGGSLRLSCAASGFTFSNYGVEWVRQAPGKGLEWVSGIWADGSTHYADTVKSRFTISRDNSKNTLYLQMNSLRAEDTAVYYCAREWQHGPVAYWGQGTLVTVSS
VL: DIQMTQSPSSLSASVGDRVTITCRASEDIYNALAWYQQKPGKAPKLLIYNTDTLHTGVPSRFSGSGSGTDYTLTISSLQPEDFATYFCQHYFHYPRTFGQGTKVEIKRTVAAPDIQMTQSPSSLSASVGDRVTITCKASQLVSSAVAWYQQKPGKAPKLLIYWASTLHTGVPSRFSGSGSGTDFTLTISSLQPEDFATYYCQQHYRTPFTFGQGTKLEIKR
B2: DVD2771 (bispecific antibody, IgG1)
VH: B1 VH
VL: DIQMTQSPSSLSASVGDRVTITCRASEDIYNALAWYQQKPGKAPKLLIYNTDTLHTGVPSRFSGSGSGTDYTLTISSLQPEDFATYFCQHYFHYPRTFGQGTKVEIKRTVAAPSVFIFPPDIQMTQSPSSLSASVGDRVTITCKASQLVSSAVAWYQQKPGKAPKLLIYWASTLHTGVPSRFSGSGSGTDFTLTISSLQPEDFATYYCQQHYRTPFTFGQGTKLEIKR
B3: DVD2772 (bispecific antibody, IgG1)
VH: EVQLVESGGGLVQPGGSLRLSCAASGFSLTNNNVNWVRQAPGKGLEWVGGVWAGGATDYNSALKSRFTISRDNSKNTAYLQMNSLRAEDTAVYYCARDGGYSSSTLYAMDAWGQGTLVTVSSASTKGPSVFPLAPEVQLVESGGGLVQPGGSLRLSCAASGFTFSNYGVEWVRQAPGKGLEWVSGIWADGSTHYADTVKSRFTISRDNSKNTLYLQMNSLRAEDTAVYYCAREWQHGPVAYWGQGTLVTVSS
VL: B1 VL
B4: DVD2813 (bispecific antibody, IgG1)
VH: EVQLVQSGAEVKKPGASVKVSCKASGYTFANYGIIWVRQAPGQGLEWMGWINTYTGKPTYAQKFQGRVTMTTDTSTSTAYMELSSLRSEDTAVYYCARKLFTTMDVTDNAMDYWGQGTTVTVSSGGGGSGGGGSEVQLVESGGGLVQPGGSLRLSCAASGFSLTNNNVNWVRQAPGKGLEWVGGVWAGGATDYNSALKSRFTISRDNSKNTAYLQMNSLRAEDTAVYYCARDGGYSSSTLYAMDAWGQGTLVTVSS
VL: DIQMTQSPSSLSASVGDRVTITCRASQDISQYLNWYQQKPGKAPKLLIYYTSRLQSGVPSRFSGSGSGTDFTLTISSLQPEDFATYFCQQGNTWPPTFGQGTKLEIKRGGSGGGGSGDIQMTQSPSSLSASVGDRVTITCRASEDIYNALAWYQQKPGKAPKLLIYNTDTLHTGVPSRFSGSGSGTDYTLTISSLQPEDFATYFCQHYFHYPRTFGQGTKVEIKR
B5: DVD2814 (bispecific antibody, IgG1)
VH: EVQLVQSGAEVKKPGASVKVSCKASGYTFANYGIIWVRQAPGQGLEWMGWINTYTGKPTYAQKFQGRVTMTTDTSTSTAYMELSSLRSEDTAVYYCARKLFTTMDVTDNAMDYWGQGTTVTVSSASTKGPEVQLVESGGGLVQPGGSLRLSCAASGFSLTNNNVNWVRQAPGKGLEWVGGVWAGGATDYNSALKSRFTISRDNSKNTAYLQMNSLRAEDTAVYYCARDGGYSSSTLYAMDAWGQGTLVTVSS
VL: DIQMTQSPSSLSASVGDRVTITCRASQDISQYLNWYQQKPGKAPKLLIYYTSRLQSGVPSRFSGSGSGTDFTLTISSLQPEDFATYFCQQGNTWPPTFGQGTKLEIKRTVAAPDIQMTQSPSSLSASVGDRVTITCRASEDIYNALAWYQQKPGKAPKLLIYNTDTLHTGVPSRFSGSGSGTDYTLTISSLQPEDFATYFCQHYFHYPRTFGQGTKVEIKR
B6: DVD2816 (bispecific antibody, IgG1)
VH: B5 VH
VL: DIQMTQSPSSLSASVGDRVTITCRASQDISQYLNWYQQKPGKAPKLLIYYTSRLQSGVPSRFSGSGSGTDFTLTISSLQPEDFATYFCQQGNTWPPTFGQGTKLEIKRTVAAPSVFIFPPDIQMTQSPSSLSASVGDRVTITCRASEDIYNALAWYQQKPGKAPKLLIYNTDTLHTGVPSRFSGSGSGTDYTLTISSLQPEDFATYFCQHYFHYPRTFGQGTKVEIKR
B7: DVD2817 (bispecific antibody, IgG1)
VH: EVQLVQSGAEVKKPGASVKVSCKASGYTFANYGIIWVRQAPGQGLEWMGWINTYTGKPTYAQKFQGRVTMTTDTSTSTAYMELSSLRSEDTAVYYCARKLFTTMDVTDNAMDYWGQGTTVTVSSASTKGPSVFPLAPEVQLVESGGGLVQPGGSLRLSCAASGFSLTNNNVNWVRQAPGKGLEWVGGVWAGGATDYNSALKSRFTISRDNSKNTAYLQMNSLRAEDTAVYYCARDGGYSSSTLYAMDAWGQGTLVTVSS
VL: B5 VL
B8: DVD2818 (bispecific antibody, IgG1)
VH: EVQLVESGGGLVQPGGSLRLSCAASGFSLTNNNVNWVRQAPGKGLEWVGGVWAGGATDYNSALKSRFTISRDNSKNTAYLQMNSLRAEDTAVYYCARDGGYSSSTLYAMDAWGQGTLVTVSSGGGGSGGGGSEVQLVQSGAEVKKPGASVKVSCKASGYTFANYGIIWVRQAPGQGLEWMGWINTYTGKPTYAQKFQGRVTMTTDTSTSTAYMELSSLRSEDTAVYYCARKLFTTMDVTDNAMDYWGQGTTVTVSS
VL: DIQMTQSPSSLSASVGDRVTITCRASEDIYNALAWYQQKPGKAPKLLIYNTDTLHTGVPSRFSGSGSGTDYTLTISSLQPEDFATYFCQHYFHYPRTFGQGTKVEIKRGGSGGGGSGDIQMTQSPSSLSASVGDRVTITCRASQDISQYLNWYQQKPGKAPKLLIYYTSRLQSGVPSRFSGSGSGTDFTLTISSLQPEDFATYFCQQGNTWPPTFGQGTKLEIKR
B9: DVD2819 (bispecific antibody, IgG1)
VH: EVQLVESGGGLVQPGGSLRLSCAASGFSLTNNNVNWVRQAPGKGLEWVGGVWAGGATDYNSALKSRFTISRDNSKNTAYLQMNSLRAEDTAVYYCARDGGYSSSTLYAMDAWGQGTLVTVSSASTKGPEVQLVQSGAEVKKPGASVKVSCKASGYTFANYGIIWVRQAPGQGLEWMGWINTYTGKPTYAQKFQGRVTMTTDTSTSTAYMELSSLRSEDTAVYYCARKLFTTMDVTDNAMDYWGQGTTVTVSS
VL: DIQMTQSPSSLSASVGDRVTITCRASEDIYNALAWYQQKPGKAPKLLIYNTDTLHTGVPSRFSGSGSGTDYTLTISSLQPEDFATYFCQHYFHYPRTFGQGTKVEIKRTVAAPDIQMTQSPSSLSASVGDRVTITCRASQDISQYLNWYQQKPGKAPKLLIYYTSRLQSGVPSRFSGSGSGTDFTLTISSLQPEDFATYFCQQGNTWPPTFGQGTKLEIKR
B10: DVD2821 (bispecific antibody, IgG1)
VH: B9 VH
VL: DIQMTQSPSSLSASVGDRVTITCRASEDIYNALAWYQQKPGKAPKLLIYNTDTLHTGVPSRFSGSGSGTDYTLTISSLQPEDFATYFCQHYFHYPRTFGQGTKVEIKRTVAAPSVFIFPPDIQMTQSPSSLSASVGDRVTITCRASQDISQYLNWYQQKPGKAPKLLIYYTSRLQSGVPSRFSGSGSGTDFTLTISSLQPEDFATYFCQQGNTWPPTFGQGTKLEIKR
B11: DVD2822 (bispecific antibody, IgG1)
VH: EVQLVESGGGLVQPGGSLRLSCAASGFSLTNNNVNWVRQAPGKGLEWVGGVWAGGATDYNSALKSRFTISRDNSKNTAYLQMNSLRAEDTAVYYCARDGGYSSSTLYAMDAWGQGTLVTVSSASTKGPSVFPLAPEVQLVQSGAEVKKPGASVKVSCKASGYTFANYGIIWVRQAPGQGLEWMGWINTYTGKPTYAQKFQGRVTMTTDTSTSTAYMELSSLRSEDTAVYYCARKLFTTMDVTDNAMDYWGQGTTVTVSS
VL: B9 VL
B12: DVD3038 (bispecific antibody, IgG1)
VH: B4 VH with A30N, T102N, M104V, D105A
VL: B4 VL with S30E, Q31N, W94Q

Columns and labels:
[1] = target: Recombinant Human TNF-α/TNFSF1A (human, UniProt P01375 77-233); assay: cell-based or functional assay
Chain of Recombinant Human TNF-α/TNFSF1A (P01375 77-233 limits assumed): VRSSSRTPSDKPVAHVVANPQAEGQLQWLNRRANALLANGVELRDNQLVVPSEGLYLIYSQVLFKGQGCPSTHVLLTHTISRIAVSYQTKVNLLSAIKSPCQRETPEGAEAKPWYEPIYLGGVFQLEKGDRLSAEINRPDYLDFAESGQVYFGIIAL

Recombinant Human β-NGF = Recombinant Human β-NGF (human, UniProt P01138 122-241); assay: cell-based or functional assay
Chain of Recombinant Human β-NGF (P01138 122-241 limits assumed): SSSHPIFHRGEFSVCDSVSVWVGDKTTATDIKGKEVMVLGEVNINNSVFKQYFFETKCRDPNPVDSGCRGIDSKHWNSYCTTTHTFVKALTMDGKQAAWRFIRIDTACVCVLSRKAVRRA

Binder | C-Terminal VD huTNFα Neutralization Assay IC50 [1] | N-Terminal VD NGF Neutralization Assay IC50 (Recombinant Human β-NGF) | N-Terminal VD huTNFα Neutralization Assay IC50 [1] | C-Terminal VD NGF Neutralization Assay IC50 (Recombinant Human β-NGF)
B1 | 0.222 nM | 0.001 nM |  | 
B2 | 0.06 nM | 0.037 nM |  | 
B3 | 0.128 nM | 0.04 nM |  | 
B4 |  |  | 0.016 nM | 7.46 nM
B5 |  |  | 0.012 nM | 0.019 nM
B6 |  |  | 0.009 nM | 2.89 nM
B7 |  |  | 0.013 nM | 1.27 nM
B8 | 0.072 nM | 0.003 nM |  | 
B9 | 0.279 nM | 0.006 nM |  | 
B10 | 0.09 nM | 0.011 nM |  | 
B11 | 0.107 nM | 0.003 nM |  | 
B12 |  |  | 0.002 nM | 0.093 nM
